This test concerns the target TglB (Pseudomonas syringae). The test is described as follows: fluorescence polarisation.

The values below come from paper PMC6927032.

In turn, TglA D40A (peptide) displayed an IC50 of 15 µM. With TglA E42A (peptide) the figure was 10.5 µM; with TglA E45A (peptide), > 300 µM.

As to TglA F49A (peptide), the IC50 was determined as 4.2 µM. Then TglA I41A (peptide), with 32 µM. In turn, TglA I44A (peptide) showed an IC50 of 24 µM. TglA K47A (peptide) registered an IC50 of 255 µM. As to TglA S46A (peptide), the IC50 amounted to 11 µM. Turning to TglA V43A (peptide), the IC50 was 98 µM. Substance TglA V48A (peptide) had an IC50 of 113 µM.

Regarding WT TglA (peptide), the IC50 is 8 µM.

For orientation: IC50 means the concentration at which inhibition is half-maximal.
